Laboratory results from patent publication US20250019451A1 (published 2025).
Where a chain is given by its changes, count along the chain named. Where two headings read alike, the source gives them in different places.

B1: HFB11-21 (antibody, V domains shown)
VH: QVQLQQPGAELVKPGASVKLSCKASGYTFISYWMHWVKQRPGRGLEWIGRIDPNSGKTKYNEKFKTKATLTVDKSSSTAYMHLNSLTSDDSAVYYCAREGWGDYWGQGTTLTVSS
VL: DIVLTQSPASLAVSLGQRATISCRASESVDNYGISFMHWYQQKPGQPPRLLIYRASNLASGIPARFSGSGSSTDFTLTINPVETDDIATYYCQQSNKDPRTFGGGTKLEIK
B2: HFB11-19 (antibody, V domains shown)
VH: QVQLQQSGAELVKPGASVKLSCKASGYTFTDYIIHWVKQRSGQGLEWIGWFSPRNNYVKYNERFTDKATLTADKSSNTVYMELSSLTSEDSAVYFCSRHGRNSIGFAYWGQGTLVTVSA
VL: DIVMTQAAPSVPVTPGESVSISCRSSKSLLNSNGNTYLYWFLQRPGQSPQLLIYRMSNLASGVPDRFSGSGSGTAFTLRISRVEAEDVGVYYCMQHLEYPYTFGGGTKLEIK
B3: HFB11-2 (antibody, V domains shown)
VH: EVQLVESGGGLVQPKGSLKLSCAASGFSFNTYAMNWVRQAPGKGLEWVARIRSKSNNYATYYADSVKDRFTISRDDSERMLYLQMNNLKTEDTAMYYCVRGGSYYSNHYFDYWGQGTTLTVSS
VL: B2 VL with N31H, R55Q, Y101F, G105A, I111L
B4: HFB11-10 parental antibody (non-humanized) in ADCC enhanced format (antibody, V domains shown)
VH: EVQLVETGGGLVQPKGSLKLSCAASGFRFNTNAMNWVRQAPGKDLEWVARIRSKSNNYATYYADSVKDRFTISRDDSQSMLYLQMNNVKTEDTAMYYCVRGSDNNYYYAMDYWGQGTSVTVSS
VL: B2 VL with N31H, Y101F, G105S
B5: HFB11-3 (antibody, V domains shown)
VH: EVQLVESGGGLVQPQGSLKLSCAASGFSFNTYAMNWVRQAPGKGLQWVARIRSKSNNYATYYADSVKDRFTISRDDSESMLYLQMNNLKTEDAAMYYCVRGKDANYFYAMDYWGQGTSVTVSS
VL: B2 VL with N31H, Y101F, G105A, I111L
B6: HFB11-8 (antibody, V domains shown)
VH: B4 VH with D44G, Y61H, A63V, I72V, V88L, T90A
VL: B2 VL with N31H, A75S, A85V, Y101F, G105S
B7: HFB11-5 (antibody, V domains shown)
VH: EVQLVESGGGLVQPRGSLKLSCTASGFSFNAYAMNWVRQAPGKGLEWVARIRTKSNNYATYYADSVKDRFTISRDDSESMLYLQMKNLKTEDTAMYYCVRGGYGNGGYYFDYWGQGTTLTVSS
VL: B2 VL with P12T, V19A, N31H, S32R, T36S, M56I, Y101F, G105S
B8: HFB11-10 (antibody, V domains shown)
VH: B4 VH
VL: B2 VL with N31H, Y101F, G105S

What was measured:
human CCR8 [1] = target: T1, human CCR8 (UniProt P51685 1-355); assay: FACS cell binding
human CCR8 [2] = target: T1, human CCR8; assay: CCL1 blocking
mouse CCR8 = target: T2, mouse CCR8 (UniProt P56484 1-353); assay: FACS cell binding
T2 chain: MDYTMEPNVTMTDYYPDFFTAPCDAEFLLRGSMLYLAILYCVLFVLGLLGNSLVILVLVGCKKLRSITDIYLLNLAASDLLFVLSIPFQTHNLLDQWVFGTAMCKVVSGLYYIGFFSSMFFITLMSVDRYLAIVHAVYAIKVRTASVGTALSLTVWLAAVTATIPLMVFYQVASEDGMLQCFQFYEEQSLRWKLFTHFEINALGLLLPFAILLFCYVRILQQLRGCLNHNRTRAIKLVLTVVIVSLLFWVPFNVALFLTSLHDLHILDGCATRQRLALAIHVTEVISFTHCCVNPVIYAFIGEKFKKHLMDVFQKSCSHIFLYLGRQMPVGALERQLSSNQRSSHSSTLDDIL

human CCR8 [3] = target: T1, human CCR8; assay: FACS cell binding; remark: listed apart in the source
human CCR8 [4] = target: T1, human CCR8; assay: CCL1 blocking; remark: listed apart in the source

| EC50 (human CCR8 [1]) [nM] | IC50 (human CCR8 [2]) [nM] | EC50 (mouse CCR8) [nM] | EC50 (human CCR8 [3]) [nM] | IC50 (human CCR8 [4]) [nM] | Binder |
| --- | --- | --- | --- | --- | --- |
| 9.05 |  |  |  |  | B1 |
| 0.86 |  |  |  |  | B2 |
| 0.98 | 1.33 | 0.4 |  |  | B3 |
|  |  |  | 0.37 |  | B4 |
| 1.63 | 1.3 |  |  |  | B5 |
| 0.53 | 0.452 |  |  |  | B6 |
| 0.49 | 0.413 |  |  |  | B7 |
| 0.57 | 0.428 |  |  | 0.428 | B8 |
